Experimental data as given in publication PMC12704277.

How the values were obtained:
[1] = target: NCP-5′linker (nucleosome core particle with H3K9me3 and a single hemimethylated CpG site in the 5′-linker DNA) (human) (UniProt P04908); assay: thermal stability assay (SYPRO Orange); 0.2 mg/ml protein; 20 mM Tris–HCl pH 7.5, 150 mM NaCl, 1 mM DTT; heated from 25 °C to 90 °C
[2] = target: NCP-601 (nucleosome core particle with H3K9me3 and a single hemimethylated CpG site within the 3′-Widom 601 sequence) (human) (UniProt P04908); assay: as above
[3] = target: NCP-3′linker (nucleosome core particle with H3K9me3 and a single hemimethylated CpG site in the 3′-linker DNA) (human) (UniProt P04908); assay: as above
[4] = target: NCP-5′linker (nucleosome core particle with H3K9me3 and a single hemimethylated CpG site in the 5′-linker DNA) (human) (UniProt P04908); assay: mass photometry; UHRF1 and NCP mixed at a UHRF1–NCP ratio of 1:4, on ice 30 min; final 25 nM in 20 mM Tris–HCl pH 7.0, 150 mM NaCl
[5] = target: NCP-601 (nucleosome core particle with H3K9me3 and a single hemimethylated CpG site within the 3′-Widom 601 sequence) (human) (UniProt P04908); assay: as above
[6] = target: NCP-3′linker (nucleosome core particle with H3K9me3 and a single hemimethylated CpG site in the 3′-linker DNA) (human) (UniProt P04908); assay: as above

“UHRF1 (ubiquitin-like with plant homeodomain and RING finger domain 1), full-length human, WT (from UniProt Q96T88 1-793) (enzyme)” was tested, and the Tm (denaturation temperature of UHRF1 bound to the NCP) [1] was 44.2 °C, the Tm (denaturation temperature of UHRF1 bound to the NCP) [2] was 42.8 °C and the Tm (denaturation temperature of UHRF1 bound to the NCP) [3] was 44.8 °C. For the same substance, the stoichiometry N [4] was 1, the stoichiometry N [5] was 1 and the stoichiometry N [6] was 1.
